Source: IntAct's records for PubMed 17540172

B1: "Lethal(3)malignant brain tumor-like protein 1" (Homo sapiens), Q9Y468 (parent)
chain: MHLVAGDSPGSGPHLPATAFIIPASSATLGLPSSALDVSCFPREPIHVGAPEQVAGCEPVSATVLPQLSAGPASSSTSTVRLLEWTEAAAPPPGGGLRFRISEYKPLNMAGVEQPPSPELRQEGVTEYEDGGAPAGDGEAGPQQAEDHPQNPPEDPNQDPPEDDSTCQCQACGPHQAAGPDLGSSNDGCPQLFQERSVIVENSSGSTSASELLKPMKKRKRREYQSPSEEESEPEAMEKQEEGKDPEGQPTASTPESEEWSSSQPATGEKKECWSWESYLEEQKAITAPVSLFQDSQAVTHNKNGFKLGMKLEGIDPQHPSMYFILTVAEVCGYRLRLHFDGYSECHDFWVNANSPDIHPAGWFEKTGHKLQPPKGYKEEEFSWSQYLRSTRAQAAPKHLFVSQSHSPPPLGFQVGMKLEAVDRMNPSLVCVASVTDVVDSRFLVHFDNWDDTYDYWCDPSSPYIHPVGWCQKQGKPLTPPQDYPDPDNFCWEKYLEETGASAVPTWAFKVRPPHSFLVNMKLEAVDRRNPALIRVASVEDVEDHRIKIHFDGWSHGYDFWIDADHPDIHPAGWCSKTGHPLQPPLGPREPSSASPGGCPPLSYRSLPHTRTSKYSFHHRKCPTPGCDGSGHVTGKFTAHHCLSGCPLAERNQSRLKAELSDSEASARKKNLSGFSPRKKPRHHGRIGRPPKYRKIPQEDFQTLTPDVVHQSLFMSALSAHPDRSLSVCWEQHCKLLPGVAGISASTVAKWTIDEVFGFVQTLTGCEDQARLFKDEARIVRVTHVSGKTLVWTVAQLGDLVCSDHLQEGKGILETGVHSLLCSLPTHLLAKLSFASDSQY

Variants of: B1
Conditions: with h14_human H1-4, P10412
Chain of h14_human H1-4, P10412 (P10412 whole entry): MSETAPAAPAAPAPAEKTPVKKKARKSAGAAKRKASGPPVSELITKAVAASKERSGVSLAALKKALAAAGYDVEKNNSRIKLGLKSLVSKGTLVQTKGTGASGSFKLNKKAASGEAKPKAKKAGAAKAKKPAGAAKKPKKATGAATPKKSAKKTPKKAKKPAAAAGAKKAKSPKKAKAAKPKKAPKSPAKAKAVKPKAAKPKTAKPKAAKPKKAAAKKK

Q: F447A was tested. Which “effect of a mutation on the interaction” value did it give?
A: The value was “decreasing interaction”.

Variants of: B1
Conditions: with h14_human H1-4, P10412
Remark: another data set of the same source

Q: For D423N, which “effect of a mutation on the interaction” value is on record?
A: The value was “decreasing interaction”.

Variants of: B1
Conditions: with h4_human H4C16, P62805

Q: For D423N, which “effect of a mutation on the interaction” value is on record?
A: The value was “decreasing interaction”.
